Test results reported in patent US20250154277A1 (CONCEPT TO MEDICINE BIOTECH, published 2025).
Like-named read-outs stand apart in the source and are kept apart here.

Tests used:
[1] = target: T1, human 5T4 expressed on cells (human, UniProt Q13641 32-420); experiment: flow cytometry, CHOK1-hu5T4 cells
T1 construct: whole, on cells; also called CHOK1-hu5T4; CHO-K1-expressing human 5T4
T1 sequence (looked up): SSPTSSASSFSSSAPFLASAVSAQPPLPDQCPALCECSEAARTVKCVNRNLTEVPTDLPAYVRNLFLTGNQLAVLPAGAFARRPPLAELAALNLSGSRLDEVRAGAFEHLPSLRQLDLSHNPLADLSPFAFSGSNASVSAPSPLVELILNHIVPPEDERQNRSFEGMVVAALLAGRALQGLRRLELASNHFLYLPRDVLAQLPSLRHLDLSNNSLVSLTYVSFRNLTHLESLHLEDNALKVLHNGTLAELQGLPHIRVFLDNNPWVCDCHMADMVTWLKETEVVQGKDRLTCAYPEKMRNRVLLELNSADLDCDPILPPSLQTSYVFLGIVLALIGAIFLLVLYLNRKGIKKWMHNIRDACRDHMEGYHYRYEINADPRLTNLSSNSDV

human 5T4-His protein [2] = target: T2, human 5T4-His protein (human, UniProt Q13641 32-355); experiment: competitive ELISA, coated human 5T4, vs naptumomab-biotin
T2 construct: also called recombinant 5T4 protein (human 5T4-his tag); human 5T4 protein; not shown: His tag
T2 sequence (looked up): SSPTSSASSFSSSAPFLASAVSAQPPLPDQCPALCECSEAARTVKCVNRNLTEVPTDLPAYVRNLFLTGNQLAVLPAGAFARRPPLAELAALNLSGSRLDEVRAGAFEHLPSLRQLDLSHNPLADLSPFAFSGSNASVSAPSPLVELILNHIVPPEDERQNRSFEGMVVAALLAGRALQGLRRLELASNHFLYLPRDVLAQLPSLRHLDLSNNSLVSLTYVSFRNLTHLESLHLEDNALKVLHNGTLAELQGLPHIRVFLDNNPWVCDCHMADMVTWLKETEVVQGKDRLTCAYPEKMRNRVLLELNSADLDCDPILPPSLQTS

human 5T4-His protein [3] = target: T2, human 5T4-His protein; experiment: as above; remark: listed apart in the source
human 5T4-His protein [4] = target: T2, human 5T4-His protein; experiment: ELISA, coated human 5T4-His
human 5T4-His protein [5] = target: T2, human 5T4-His protein; experiment: competitive ELISA, coated human 5T4, vs naptumomab-biotin; remark: listed apart in the source
[6] = target: T1, human 5T4 expressed on cells; experiment: flow cytometry, HEK293-hu5T4 cells
human 5T4-His protein [7] = target: T2, human 5T4-His protein; experiment: ELISA, coated human 5T4-His; remark: listed apart in the source
[8] = target: T1, human 5T4 expressed on cells; experiment: flow cytometry, CHOK1-hu5T4 cells; remark: listed apart in the source
human 5T4-His protein [9] = target: T2, human 5T4-His protein; experiment: competitive ELISA, coated human 5T4, vs naptumomab-biotin; remark: listed apart in the source
[10] = target: T1, human 5T4 expressed on cells; experiment: flow cytometry, HEK293-hu5T4 cells; remark: listed apart in the source
Procedure: (§1) To evaluate the binding property of affinity maturated antibodies to surface 5T4, tested antibodies were analyzed for their binding to CHOK1-hu5T4, HEK293-hu5T4 or MCF-7 cells by FACS. […] After wash by FACS buffer, PE conjugated-anti-human IgG antibody was added to each well and incubated at 4° C. for 30 minutes. MFI of PE was evaluated by MACSQuant Analyzer 16.

human 5T4-His protein [11] = target: T2, human 5T4-His protein; experiment: SPR Biacore, Protein A capture
Procedure: (§2) The binding affinity of tested antibodies against recombinant 5T4 protein (human 5T4-his tag) was tested with Biacore using a capture method. The antibodies were captured using Protein A chip. A serial dilution of human 5T4-his tag protein was injected over captured antibody for 3 mins at a flow rate of 30 μl/min. The antigen was allowed to dissociate for 300 s. All the experiments were carried out on a Biacore T200. Data analysis was carried out using Biacore T200 evaluation software.

[12] = target: T1, human 5T4 expressed on cells; experiment: flow cytometry, CHOK1-hu5T4 cells; remark: listed apart in the source
Procedure: as §1

[13] = target: T1, human 5T4 expressed on cells; experiment: flow cytometry, MCF-7 cells
Procedure: as §1

human 5T4-His protein [14] = target: T2, human 5T4-His protein; experiment: SPR Biacore, Protein A capture; remark: listed apart in the source
human 5T4-His protein [15] = target: T2, human 5T4-His protein; experiment: ELISA, coated human 5T4-His; remark: listed apart in the source
Procedure: Briefly, microtiter plates were coated with human 5T4-His protein at 2 μg/ml in PBS, 30 μl/well at 4° C. overnight, then blocked with 5% PBS/Milk. Serial dilutions of antibodies were added to each well and incubated for 1 hour at room temperature. The plates were washed with PBS/Tween and then incubated with Goat Anti-Human IgG-HRP for 50 mins at room temperature. After washing, the plates were developed with TMB substrate and analyzed by spectrophotometer at OD 450 nm.

human 5T4-His protein [16] = target: T2, human 5T4-His protein; experiment: competitive ELISA, coated human 5T4, vs 159D5-biotin
human 5T4-His protein [17] = target: T2, human 5T4-His protein; experiment: SPR Biacore, Protein A capture; remark: listed apart in the source
Procedure: as §2, with “binding” for “binding affinity”, “of the chimeric mAbs from these clones” for “of tested antibodies”, “The mAbs” for “The antibodies”, “for 2-3” for “for 3”, “for 360-1000” for “for 300”

human 5T4-His protein [18] = target: T2, human 5T4-His protein; experiment: ELISA, coated antigen
cynomolgus 5T4 protein = target: T3, cynomolgus 5T4 protein (cynomolgus monkey, UniProt Q4R8Y9 35-355, limits assumed); experiment: ELISA, coated antigen
T3 construct: Coated protein in ELISA; the screening step names a cyno 5T4-His protein; also called cyno 5T4; recombinant cyno 5T4-His protein
T3 sequence (looked up): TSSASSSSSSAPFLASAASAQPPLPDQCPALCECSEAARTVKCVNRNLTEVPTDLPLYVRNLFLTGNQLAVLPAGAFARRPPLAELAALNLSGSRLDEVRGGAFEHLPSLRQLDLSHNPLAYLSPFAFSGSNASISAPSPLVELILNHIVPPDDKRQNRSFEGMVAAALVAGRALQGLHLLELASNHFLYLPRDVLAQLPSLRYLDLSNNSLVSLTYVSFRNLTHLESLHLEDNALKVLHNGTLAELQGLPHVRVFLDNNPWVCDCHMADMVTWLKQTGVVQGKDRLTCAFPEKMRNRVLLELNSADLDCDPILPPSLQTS

Work on “naptumomab (antibody portion of naptumomab (NeoTX) that targets 5T4)” yielded an EC50 (read off the curve) [1] of 2 nM, an IC50 (read off the curve) (human 5T4-His protein [2]) of 3 nM and an IC50 (read off the curve) (human 5T4-His protein [3]) of 6 nM. It also gave an EC50 (read off the curve) (human 5T4-His protein [4]) of 0.1 nM, an IC50 (read off the curve) (human 5T4-His protein [5]) of 4 nM and an EC50 (read off the curve) [6] of 2 nM. It also gave an EC50 (read off the curve) (human 5T4-His protein [7]) of 0.2 nM, an EC50 (read off the curve) [8] of 1 nM and an IC50 (read off the curve) (human 5T4-His protein [9]) of 5 nM.

B1: Hu14G12-28-108# (antibody, V domains shown)
VH: QVQLVQSGAEVKKPGASVKVSCKASGYAFSSSWMNWVRQAPGQGLEWMGRIYREDGHTNYNGKFKGRVTMTADKSITTAYMELSRLRSDDTAVYYCANGGAMDYWGQGTLVTVSS
VL: DIQMTQSPSSLSASVGDRVTITCRASQDISNYLNWYQQKPGKAPKLLIYYTSRLHSGVPSRFSGSGSGTDYTFTISSLQPEDIATYFCANDNTLPWTFGGGTKVEIK
With B1 the “EC50 (read off the curve)” value [10] was ~2 nM, the Kd (human 5T4-His protein [11]) was 0.552 nM and the koff (human 5T4-His protein [11]) was 0.000101 s⁻¹. The kon (human 5T4-His protein [11]) was 183000 M⁻¹ s⁻¹, the “EC50 (read off the curve)” value [12] was ~1 nM and the “EC50 (read off the curve)” value [13] was ~0.3 nM. For the same molecule, the “fold increase of binding affinity against the parental Hu14G12-28” value (human 5T4-His protein [14]) was 7.41 fold and the “EC50 (read off the curve)” value (human 5T4-His protein [15]) was ~0.1 nM.

B2: 24F10 chimeric antibody (antibody, V domains shown)
VH: EVQLVESGGGLVKPGGSLKLSCAASGFTFSDYGMHWVRQAPEKGLEWVAYISSGTSTIYYTDTVKGRFTISRDNAKNTLFLQMTSLRSEDTAMYYCARGGDGYYRSTMDYWGQGISVTVSS
VL: DIVLTQSPASLAVSLGQRATISCRASQSVSSSSYSYMHWYQQKPGQPPKLLIKSASNLASGVPARFSGSGSGTDFTLNIHPVEEEDSATYYCQHSWEVPRTFGGGTKLEIK
notes: chimeric mAb
B2 was tested, and the “IC50 (read off the curve)” value (human 5T4-His protein [16]) was ~9 nM, the Kd (human 5T4-His protein [17]) was 0.302 nM and the koff (human 5T4-His protein [17]) was 0.000126 s⁻¹. For the same molecule, the kon (human 5T4-His protein [17]) was 418000 M⁻¹ s⁻¹, the EC50 (human 5T4-His protein [18]) was 0.18 nM and the EC50 (cynomolgus 5T4 protein) was 0.21 nM.
